Experimental data as given in patent US20260209345A1 (IOMX THERAPEUTICS, published 2026).
Positions count from the first letter of the chain named.

B1: A-001 (antibody, V domains shown)
VH: QVQLVQSGAEVKKPGSSVKVSCKASGGTFSSYAISWVRQAPGQGLEWMGGIIPIFGTANYAQKFQGRVTITADESTSTAYMELSSLRSEDTAVYYCAKDLGTYSSGWPYYYGMDVWGQGTTVTVSS
VL: SYELTQPPSVSVSPGQTASITCSGDKLGDKYASWYQQKPGQSPVLVIYQDSKRPSGIPERFSGSNSGNTATLTISGTQAEDEADYYCQSTTHTSFVFGGGTKLTVL
notes: tested as IgG; also called parental antibody A-001
B2: A-005 (antibody, V domains shown)
VH: B1 VH with S30T, S31I, S35N, I54G, G56H, T57S
VL: B1 VL
notes: tested as IgG
B3: A-012 (antibody, V domains shown)
VH: B1 VH with F29I, S31E, I34F, S35L, I54K, G56H
VL: B1 VL
notes: tested as IgG
B4: A-010 (antibody, V domains shown)
VH: B1 VH with S30Q, Y32Q, I34F, S35A, G50S, I54G, G56S
VL: B1 VL
B5: A-014 (antibody, V domains shown)
VH: B1 VH with S35N, G56H, A58S
VL: B1 VL
notes: tested as IgG
B6: A-009 (antibody, V domains shown)
VH: B1 VH with S31V, Y32T, S35L, I54S, G56T, T57S, Q62S
VL: B1 VL
notes: tested as IgG
B7: A-016 (antibody, V domains shown)
VH: B1 VH with I34F, S35N, G50S, G56K
VL: B1 VL
notes: tested as IgG
B8: A-011 (antibody, V domains shown)
VH: B1 VH with T28S, S31H, Y32S, I34F, G50S, I54A, G56Y
VL: B1 VL
notes: tested as IgG
B9: A-008 (antibody, V domains shown)
VH: B1 VH with S30A, S31E, Y32S, S35L, I52V, I54S, G56Y, T57S
VL: B1 VL
notes: tested as IgG
B10: A-004 (antibody, V domains shown)
VH: B1 VH with S30R, S31T, Y32K, S35A, G56S, Q62P
VL: B1 VL
notes: tested as IgG
B11: A-020 (antibody, V domains shown)
VH: B1 VH with S30Q, S31T, G50S, I54K, G56Y, T57Q, A58S, Q62Y
VL: B1 VL
notes: tested as IgG
B12: A-013 (antibody, V domains shown)
VH: B1 VH with S30R, S31Q, Y32E, I34F, G50S, G56Y, T57S, A58S
VL: B1 VL
notes: tested as IgG
B13: A-046 (antibody, V domains shown)
VH: B1 VH with T28S, S30Q, S35N, I54G, G56S
VL: B1 VL with S89L, T91H, H92L, S94I, F95Y
notes: tested as IgG
B14: A-007 (antibody, V domains shown)
VH: B1 VH with T28S, S30R, S31E, I34F, G50S, I54T, G56H, A58S, Q62G
VL: B1 VL
notes: tested as IgG
B15: A-018 (antibody, V domains shown)
VH: B1 VH with S31T, Y32S, G56Y
VL: B1 VL
notes: tested as IgG
B16: A-036 (antibody, V domains shown)
VH: B1 VH
VL: B1 VL with S89L, T91H, H92L, S94I, F95Y
notes: tested as IgG
B17: A-019 (antibody, V domains shown)
VH: B1 VH with G27Y, S30T, S31T, Y32S, I34M, S35N, I54Y, G56S, Q62P
VL: B1 VL
notes: tested as IgG
B18: A-017 (antibody, V domains shown)
VH: B1 VH with I54Y, G56S, T57L, Q62P
VL: B1 VL
notes: tested as IgG
B19: A-015 (antibody, V domains shown)
VH: B1 VH with T28S, S30Q, S35N, I54G, G56S
VL: B1 VL
notes: tested as IgG
B20: A-006 (antibody, V domains shown)
VH: B1 VH with S31Q, I34F, G50S, I54G, G56T, A58S, Q62H
VL: B1 VL
notes: tested as IgG
B21: A-022 (antibody, V domains shown)
VH: QVQLVQSGAEVKKPGSSVKVSCKASGGTFGGSAISWVRQAPGQGLEWMGGIVLAYSTSVYAQKFQGRVTITADESTSTAYMELSSLRSEDTAVYYCAKGPPVGSSSWYTDWYFDLWGRGTLVTVSS
VL: SYELTQPPSVSVSPGQTASITCSGDKLGDKYASWYQQKPGQSPVLVIYQDSKRPSGIPERFSGSNSGNTATLTISGTQAEDEADYYCLSYGAHSHGVVFGGGTKLTVL
notes: tested as IgG
B22: A-037 (antibody, V domains shown)
VH: QVQLVQSGAEVKKPGSSVKVSCKASGGTFSSYAISWVRQAPGQGLEWMGGIIPIFGTANYAQKFQGRVTITADESTSTAYMELSSLRSEDTAVYYCARVHLYYHFPASYFDYWGQGTLVTVSS
VL: B21 VL with S89A, Y90S, G91L, A92G, H93T, S94G, H95G, G96V, V97Y
notes: tested as IgG

Key:
recombinant LILRB1 ECD [1] = molecular target: T1, recombinant LILRB1 ECD (human, UniProt Q8NHL6 24-461); experiment: ELISA, LILRB1 ECD binding to HLA-G-Fc
T1 construct: also called biotinylated LILRB1 ECD
T1 sequence (Q8NHL6 24-461 limits assumed): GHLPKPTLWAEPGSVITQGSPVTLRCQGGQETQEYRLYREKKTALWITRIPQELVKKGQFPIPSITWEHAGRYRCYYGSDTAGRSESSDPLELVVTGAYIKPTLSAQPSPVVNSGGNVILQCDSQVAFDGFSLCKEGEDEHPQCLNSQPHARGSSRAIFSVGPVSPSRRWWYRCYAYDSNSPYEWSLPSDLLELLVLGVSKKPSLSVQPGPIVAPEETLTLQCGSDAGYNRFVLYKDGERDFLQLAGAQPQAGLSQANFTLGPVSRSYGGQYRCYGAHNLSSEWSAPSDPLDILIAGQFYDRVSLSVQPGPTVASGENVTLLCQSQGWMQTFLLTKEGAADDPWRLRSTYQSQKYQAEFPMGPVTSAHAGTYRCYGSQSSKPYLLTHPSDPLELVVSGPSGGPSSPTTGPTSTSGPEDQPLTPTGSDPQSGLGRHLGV
Description: (§1) HLA-G inhibition was tested by ELISA. 384-well Maxisorp plates were coated with 2 ug/mL B2M-HLA-G fused to a mouse IgG2a-Fc and the plates were blocked with 2% (w/v) BSA in PBST. […] 15 ul of the antibody dilution series (300 nM to 0.3 nM) were mixed with 30 μL of the pre-mixed LILRB/Avidin-HRP solution (final antibody concentration 100 nM to 0.1 nM) and incubated for 1 h at room temperature. After three wash cycles with PBST, 20 μL of the antibody/LILRB/Avidin-HRP solution was transferred to the plate with immobilized HLA-G and incubated for 15 min at room temperature. After three wash cycles with PBST, residual LILRB binding to HLA-G was detected by developing the ELISA with TMB substrate.

recombinant LILRA1 ECD = molecular target: T2, recombinant LILRA1 ECD (human, UniProt O75019 17-461); experiment: BLI, IgG on AHC sensor, ECD in solution
T2 construct: whole canonical entry named; also called LILA1
T2 sequence (O75019 17-461 limits assumed): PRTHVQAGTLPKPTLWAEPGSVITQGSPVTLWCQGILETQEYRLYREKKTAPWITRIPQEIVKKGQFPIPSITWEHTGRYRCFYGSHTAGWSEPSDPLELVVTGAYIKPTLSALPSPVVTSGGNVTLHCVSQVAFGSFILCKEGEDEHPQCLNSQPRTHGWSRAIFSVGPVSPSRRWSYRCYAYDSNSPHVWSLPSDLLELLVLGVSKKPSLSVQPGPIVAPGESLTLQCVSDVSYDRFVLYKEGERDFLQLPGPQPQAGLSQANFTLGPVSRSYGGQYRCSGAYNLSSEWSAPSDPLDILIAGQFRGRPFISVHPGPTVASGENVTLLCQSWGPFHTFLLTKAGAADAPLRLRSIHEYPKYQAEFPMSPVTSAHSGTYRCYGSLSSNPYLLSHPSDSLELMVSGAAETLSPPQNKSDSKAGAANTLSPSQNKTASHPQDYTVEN
Description: (§2) Briefly, IgGs were captured on anti-human capture (AHC) biosensors (Sartorius). […] Subsequently, the sensors were dipped into 1× Kinetics Buffer to measure the dissociation over 420 s. All sensorgrams were double referenced against 1× Kinetics Buffer and unloaded […] sensors to subtract sensor drifts and potential reference binding of the analytes. The affinities were determined by applying a 1:1 binding model.

recombinant LILRA3 = molecular target: T3, recombinant LILRA3 (human, UniProt Q8N6C8 24-439); experiment: BLI, IgG on AHC sensor, ECD in solution
T3 construct: whole entry named; also called LILRA3 ECD; LILA3
T3 sequence (Q8N6C8 24-439 limits assumed): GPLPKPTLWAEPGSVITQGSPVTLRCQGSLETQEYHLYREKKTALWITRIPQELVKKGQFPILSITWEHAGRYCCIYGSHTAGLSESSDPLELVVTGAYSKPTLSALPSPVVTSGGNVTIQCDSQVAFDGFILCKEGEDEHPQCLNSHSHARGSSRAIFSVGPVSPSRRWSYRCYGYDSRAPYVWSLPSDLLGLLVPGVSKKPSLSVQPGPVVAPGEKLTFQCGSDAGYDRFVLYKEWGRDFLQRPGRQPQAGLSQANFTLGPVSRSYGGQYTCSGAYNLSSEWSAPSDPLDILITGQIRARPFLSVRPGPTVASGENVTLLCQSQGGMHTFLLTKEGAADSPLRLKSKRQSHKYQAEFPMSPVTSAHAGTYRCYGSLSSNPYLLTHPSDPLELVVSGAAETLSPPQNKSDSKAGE
Description: as §2

recombinant LILRB1 ECD [2] = molecular target: T1, recombinant LILRB1 ECD; experiment: BLI, IgG on AHC sensor, ECD in solution
Description: as §2

recombinant LILRB2 ECD [3] = molecular target: T4, recombinant LILRB2 ECD (human, UniProt Q8N423 22-460); experiment: ELISA, LILRB2 ECD binding to HLA-G-Fc
T4 construct: also called biotinylated LILRB2 ECD
T4 sequence (Q8N423 22-460 limits assumed): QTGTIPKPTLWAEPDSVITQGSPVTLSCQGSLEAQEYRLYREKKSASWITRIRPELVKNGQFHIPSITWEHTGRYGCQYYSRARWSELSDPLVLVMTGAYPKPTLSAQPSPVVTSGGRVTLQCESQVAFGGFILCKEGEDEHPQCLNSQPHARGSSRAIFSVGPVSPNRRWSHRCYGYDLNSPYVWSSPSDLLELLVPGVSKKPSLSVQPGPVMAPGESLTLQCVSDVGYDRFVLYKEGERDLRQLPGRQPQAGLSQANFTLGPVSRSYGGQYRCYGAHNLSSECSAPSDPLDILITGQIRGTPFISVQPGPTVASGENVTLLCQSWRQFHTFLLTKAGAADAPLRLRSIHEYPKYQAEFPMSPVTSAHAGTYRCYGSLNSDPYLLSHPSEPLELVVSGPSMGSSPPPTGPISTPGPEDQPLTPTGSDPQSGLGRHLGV
Description: as §1

recombinant LILRB2 ECD [4] = molecular target: T4, recombinant LILRB2 ECD; experiment: BLI, IgG on AHC sensor, ECD in solution
Description: as §2

Molecule | IC50 (recombinant LILRB1 ECD [1]) [nM] | Kd (recombinant LILRA1 ECD) [nM] | Kd (recombinant LILRA3) [nM] | Kd (recombinant LILRB1 ECD [2]) [nM] | IC50 (recombinant LILRB2 ECD [3]) [nM] | Kd (recombinant LILRB2 ECD [4]) [nM] | binding result (recombinant LILRA1 ECD)
Ref051 [BND-22, LILRB1 specific] (antibody) | 1.8 | 15.1 | 39.4 | 6.9 |  |  | 
B1 | 5.1 | 1820 | 576 | 157 | 3.1 | 36.4 | 
B2 | 5 | 407 | 161 | 1 | 4.3 | 3.3 | 
B3 | 3.3 | 469 | 166 | 12.8 | 3.8 | 6.8 | 
B4 | 4.1 | 760 | 217 | 4.5 | 3.7 | 3.3 | 
B5 | 3.8 | 471 | 58.8 | 4.4 | 4.2 | 2.3 | 
B6 | 5.5 | 194 | 92.8 | 3.7 | 5.5 | 3.4 | 
B7 | 4.4 | 402 | 116 | 6.5 | 5.1 | 1.4 | 
B8 | 6.1 | 470 | 137 | 9.3 | 5.5 | 4.4 | 
B9 | 4.1 | 1520 | 355 | 7.4 | 4 | 8.8 | 
B10 | 4.4 | 569 | 232 | 12.8 | 4.5 | 7.1 | 
B11 | 3.7 | 316 | 392 | 21.2 | 3.8 | 2.9 | 
B12 | 4.5 | 1080 | 622 | 6.3 | 4.6 | 4.2 | 
B13 | 2 |  |  | 12.6 | 3.7 | 9.4 | no binding (tested: 900 nM)
B14 | 3.3 | 322 | 255 | 11.7 | 3.6 | 1.2 | 
B15 | 5 | 808 | 212 | 6.2 | 5.1 | 2.7 | 
B16 | 1.2 | 42900 |  | 35.8 | 2.7 | 18.6 | 
B17 | 4 | 1030 | 144 | 20.7 | 4.9 | 3.9 | 
B18 | 4.5 | 591 | 223 | 2.3 | 4.4 | 1.7 | 
B19 | 4.4 | 868 | 202 | 5 | 3.2 | 3.5 | 
B20 | 6.1 | 190 | 182 | 0.5 | 4.8 | 2.3 | 
B21 | 3.9 |  | 317 | 5.2 | 3.1 | 4.4 | 
B22 | 3.8 | 1270 |  | 16 | 3.5 | 2 | 
